Source: patent US20080020978A1 (Amgen, published 2008)
Square brackets hold non-standard residues; d marks the D form. Ends that are not written are not given here. * marks the point of attachment. Bn2 = Nα,Nα-dibenzyl on N-terminal residue; 1Nal = N[C@@H](Cc1cccc2ccccc12)C(=O)O; Cha = N[C@@H](CC1CCCCC1)C(=O)O; Phg = N[C@H](C(=O)O)c1ccccc1; Bn = c1ccc(C*)cc1; Acm = CC(=O)NC*

The binders below were run against T1, CGRP1 receptor (CRLR/RAMP1 complex) of human neuroblastoma SK-N-MC cells (human, UniProt Q16602 23-461; O60894 27-148) (assay: 125I-hαCGRP competition, SK-N-MC membranes).
T1 construct: whole, on cells
T1 sequence (Q16602 23-461, chain 1 of 2): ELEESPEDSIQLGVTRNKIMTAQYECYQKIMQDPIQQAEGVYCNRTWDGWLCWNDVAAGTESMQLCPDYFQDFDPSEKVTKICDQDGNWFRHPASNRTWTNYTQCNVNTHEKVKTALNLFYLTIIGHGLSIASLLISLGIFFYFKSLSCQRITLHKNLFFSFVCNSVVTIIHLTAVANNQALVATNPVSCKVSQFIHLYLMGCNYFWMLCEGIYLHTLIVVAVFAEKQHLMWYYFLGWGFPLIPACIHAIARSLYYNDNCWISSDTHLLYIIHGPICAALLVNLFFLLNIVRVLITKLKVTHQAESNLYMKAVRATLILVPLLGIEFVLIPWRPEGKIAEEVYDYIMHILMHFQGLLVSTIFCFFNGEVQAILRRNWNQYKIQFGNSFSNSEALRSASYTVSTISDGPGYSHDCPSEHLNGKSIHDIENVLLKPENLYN
T1 sequence (O60894 27-148, chain 2 of 2): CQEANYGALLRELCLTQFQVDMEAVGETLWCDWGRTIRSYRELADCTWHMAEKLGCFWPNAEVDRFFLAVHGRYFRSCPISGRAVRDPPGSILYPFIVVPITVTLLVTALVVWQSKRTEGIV
Protocol: CGRP₁ binding experiments. […] The plates were incubated at room temperature for 2 hour with shaking at 60 rpm, then the contents of each well were filtered over 0.5% polyethyleneimine (PEI)-treated (at least one hour) GF/C 96-well filter plates. The GF/C filter plates were washed 6 times with ice-cold 50 mM Tris, pH 7.5 and dried in an oven at 55 C for 1 hour. The bottoms of the GF/C plates were then sealed, and 40 μl Microscint™ 20 was added to each well, then the tops of the GF/C plates were sealed with TopSeal™-A, a press-on adhesive sealing film, and the GF/C plates were counted with TopCount NXT (Packard). The data were analyzed by using ActivityBase (IDBS) or Prizm (GraphPad) software.

Binder	Ki [nM]
Ac-WVTHRLAGLLSRSGGVVKCNFVPTDVGPFAF-NH2 (not fully specified (residue 19); printed as Ac-WVTHRLAGLLSRSGGVVKC^(20 kDa PEG)NFVPTDVGPFAF-amide) [SEQ ID NO 231]	0.27
Ac-WVTHRLAGLLSRSGGVVRCNFVPTDVGPFAF-NH2 (not fully specified (residue 19); printed as Ac-WVTHRLAGLLSRSGGVVRC^(20 kDa PEG)NFVPTDVGPFAF-amide) [SEQ ID NO 681]	0.6
Ac-WVTHRLAGLLSRSGGVVCNNFVPTDVGPFAF-NH2 (not fully specified (residue 18); printed as Ac-WVTHRLAGLLSRSGGVVC^(20 kDa PEG)NNFVPTDVGPFAF-amide) [SEQ ID NO 683]	1.58
WVTHRLAGLLSRSGGVVKCNFVPTNVGSKAF (WVTHRLAGLLSRSGGVVKC^(5 kDa MeO-PEG)NFVPTNVGSKAF-amide) [SEQ ID NO 695]	5.44
VTHRLAGLLSRSGGVVKCNFVPTNVGSKAF (VTHRLAGLLSRSGGVVKC^(5 kDa MeO-PEG)NFVPTNVGSKAF-amide) [SEQ ID NO 693]	17.5
VTHRLAGLLSRSGGVVC(MeO‑PEG 5 kDa)NNFVPTNVGSKAF-NH2 [SEQ ID NO 691]	157
C(MeO‑PEG 5 kDa)GGGGGGGWVTHRLAGLLSRSGGVVKNNFVPTDVGPFAF-NH2 [SEQ ID NO 697]	5.74
C(MeO‑PEG 5 kDa)GGGGGGGVTHRLAGLLSRSGGVVKNNFVPTNVGSKAF-NH2 [SEQ ID NO 690]	3070
CGGGGGGGVTHRLAGLLSRSGGVVKNNFVPTDVGPFAF-NH2 (not fully specified (residue 1)) [SEQ ID NO 692]	20.8
WVTHXLAGLLSXSGGVVXKNFVPTDVGXFAF (Ac-WVTH[Cit]LAGLLS[Cit]SGGVV[hArg]K(20 KPEGald)NFVPTDVG[Oic]FAF-NH2) [SEQ ID NO 172]	1.27
WVTHXLAGLLSXSGGVVXKNFVPTDVGPFAF (Ac-WVTH[Cit]LAGLLS[Cit]SGGVV[hArg]K(20 K PEGald)NFVPTDVGPFAF-NH2) [SEQ ID NO 153]	1.78
WVTHXLAGLLSXSGGVVRKNFVPTDVGPFAF (Ac-WVTH[Cit]LAGLLS[Cit]SGGVVRK(20 KPEGald)NFVPTDVGPFAF-NH2) [SEQ ID NO 158]	2.61
WVTHXLAGLLSXSGGVVXKNFVPTDVGPXAF (Ac-WVTH[Cit]LAGLLS[Cit]SGGVV[hArg]KNFVPTDVGP[1-Nal]AF-NH2) [SEQ ID NO 674]	0.64
WVTHXLAGLLSXSGGVVXKNFVPTDVGPFAF (Ac-WVTH[Cit]LAGLLS[Cit]SGGVV[hArg]K(20 KPEGald)NFVPTDVGPFAF-NH2) [SEQ ID NO 171]	1.27
CGGGGGGGFVPTDVGPFAF-NH2 [SEQ ID NO 721]	7.34
WVTHRLAGLLSRSGGVVKCNFVPTDVGPFAF-NH2 [SEQ ID NO 689]	0.95
ASDTATCVTHRLAGLLSRSGGVVKNNFVPTNVGSKAF (ASDTATC(Acm)VTHRLAGLLSRSGGVVKNNFVPTNVGSKAF-NH2) [SEQ ID NO 707]	20.8
AC(Acm)DTATSVTHRLAGLLSRSGGVVKNNFVPTNVGSKAF-NH2 (N-terminus assumed; SMILES CC(=O)NCSC[C@H](NC(=O)[C@H](C)N)C(=O)N[C@@H](CC(=O)O)C(=O)N[C@H](C(=O)N[C@@H](C)C(=O)N[C@H](C(=O)N[C@@H](CO)C(=O)N[C@H](C(=O)N[C@H](C(=O)N[C@@H](Cc1c[nH]cn1)C(=O)N[C@@H](CCCNC(=N)N)C(=O)N[C@@H](CC(C)C)C(=O)N[C@@H](C)C(=O)NCC(=O)N[C@@H](CC(C)C)C(=O)N[C@@H](CC(C)C)C(=O)N[C@@H](CO)C(=O)N[C@@H](CCCNC(=N)N)C(=O)N[C@@H](CO)C(=O)NCC(=O)NCC(=O)N[C@H](C(=O)N[C@H](C(=O)N[C@@H](CCCCN)C(=O)N[C@@H](CC(N)=O)C(=O)N[C@@H](CC(N)=O)C(=O)N[C@@H](Cc1ccccc1)C(=O)N[C@H](C(=O)N1CCC[C@H]1C(=O)N[C@H](C(=O)N[C@@H](CC(N)=O)C(=O)N[C@H](C(=O)NCC(=O)N[C@@H](CO)C(=O)N[C@@H](CCCCN)C(=O)N[C@@H](C)C(=O)N[C@@H](Cc1ccccc1)C(N)=O)C(C)C)[C@@H](C)O)C(C)C)C(C)C)C(C)C)[C@@H](C)O)C(C)C)[C@@H](C)O)[C@@H](C)O) [SEQ ID NO 708]	24
ASDTATSVTHRLAGLLSRSGGVVKNNFVPTNVGSKAF-NH2 [SEQ ID NO 709]	12.1
VTHRLAGLLSRSGGVVKCNFVPTNVGSKAF (VTHRLAGLLSRSGGVVKC^(5 kDa MeO-PEG)NFVPTNVGSKAF-amide) [SEQ ID NO 694]	31.8

Further lines, results first:

Ki [nM]	Binder
0.22	Bn-VTHRLAGLLSRSGGVVKNNFVPTDVGPFAF-NH2 (SMILES CC(C)C[C@H](NC(=O)CNC(=O)[C@H](C)NC(=O)[C@H](CC(C)C)NC(=O)[C@H](CCCNC(=N)N)NC(=O)[C@H](Cc1c[nH]cn1)NC(=O)[C@@H](NC(=O)[C@@H](NCc1ccccc1)C(C)C)[C@@H](C)O)C(=O)N[C@@H](CC(C)C)C(=O)N[C@@H](CO)C(=O)N[C@@H](CCCNC(=N)N)C(=O)N[C@@H](CO)C(=O)NCC(=O)NCC(=O)N[C@H](C(=O)N[C@H](C(=O)N[C@@H](CCCCN)C(=O)N[C@@H](CC(N)=O)C(=O)N[C@@H](CC(N)=O)C(=O)N[C@@H](Cc1ccccc1)C(=O)N[C@H](C(=O)N1CCC[C@H]1C(=O)N[C@H](C(=O)N[C@@H](CC(=O)O)C(=O)N[C@H](C(=O)NCC(=O)N1CCC[C@H]1C(=O)N[C@@H](Cc1ccccc1)C(=O)N[C@@H](C)C(=O)N[C@@H](Cc1ccccc1)C(N)=O)C(C)C)[C@@H](C)O)C(C)C)C(C)C)C(C)C) [SEQ ID NO 700]
0.06	Ac-VTHRLAGLLSRSGGVVRK(PEG 5 kDa)NFVPTDVGPFAF-NH2 [SEQ ID NO 229]
0.19	[Phg]VTHRLAGLLSRSGGVVKNNFVPTDVGPFAF-NH2 (N-terminus assumed; SMILES CC(C)C[C@H](NC(=O)CNC(=O)[C@H](C)NC(=O)[C@H](CC(C)C)NC(=O)[C@H](CCCNC(=N)N)NC(=O)[C@H](Cc1c[nH]cn1)NC(=O)[C@@H](NC(=O)[C@@H](NC(=O)[C@@H](N)c1ccccc1)C(C)C)[C@@H](C)O)C(=O)N[C@@H](CC(C)C)C(=O)N[C@@H](CO)C(=O)N[C@@H](CCCNC(=N)N)C(=O)N[C@@H](CO)C(=O)NCC(=O)NCC(=O)N[C@H](C(=O)N[C@H](C(=O)N[C@@H](CCCCN)C(=O)N[C@@H](CC(N)=O)C(=O)N[C@@H](CC(N)=O)C(=O)N[C@@H](Cc1ccccc1)C(=O)N[C@H](C(=O)N1CCC[C@H]1C(=O)N[C@H](C(=O)N[C@@H](CC(=O)O)C(=O)N[C@H](C(=O)NCC(=O)N1CCC[C@H]1C(=O)N[C@@H](Cc1ccccc1)C(=O)N[C@@H](C)C(=O)N[C@@H](Cc1ccccc1)C(N)=O)C(C)C)[C@@H](C)O)C(C)C)C(C)C)C(C)C) [SEQ ID NO 703]
0.08	Ac-WVTHRLAGLLSRSGGVVKNNFVPTDVGPFAF-NH2 [SEQ ID NO 684]
0.34	Ac-WVTHRLAGLLSRSGGVVCNNFVPTDVGPFAF-NH2 [SEQ ID NO 682]
0.58	Ac-WVTHRLAGLLSRSGGVVRCNFVPTDVGPFAF-NH2 [SEQ ID NO 680]
0.14	[1Nal]VTHRLAGLLSRSGGVVKNNFVPTDVGPFAF-NH2 (N-terminus assumed; SMILES CC(C)C[C@H](NC(=O)CNC(=O)[C@H](C)NC(=O)[C@H](CC(C)C)NC(=O)[C@H](CCCNC(=N)N)NC(=O)[C@H](Cc1c[nH]cn1)NC(=O)[C@@H](NC(=O)[C@@H](NC(=O)[C@@H](N)Cc1cccc2ccccc12)C(C)C)[C@@H](C)O)C(=O)N[C@@H](CC(C)C)C(=O)N[C@@H](CO)C(=O)N[C@@H](CCCNC(=N)N)C(=O)N[C@@H](CO)C(=O)NCC(=O)NCC(=O)N[C@H](C(=O)N[C@H](C(=O)N[C@@H](CCCCN)C(=O)N[C@@H](CC(N)=O)C(=O)N[C@@H](CC(N)=O)C(=O)N[C@@H](Cc1ccccc1)C(=O)N[C@H](C(=O)N1CCC[C@H]1C(=O)N[C@H](C(=O)N[C@@H](CC(=O)O)C(=O)N[C@H](C(=O)NCC(=O)N1CCC[C@H]1C(=O)N[C@@H](Cc1ccccc1)C(=O)N[C@@H](C)C(=O)N[C@@H](Cc1ccccc1)C(N)=O)C(C)C)[C@@H](C)O)C(C)C)C(C)C)C(C)C) [SEQ ID NO 701]
0.27	Ac-WVTHRLAGLLSRSGGVVKC(PEG 30 kDa)NFVPTDVGPFAF-NH2 [SEQ ID NO 232]
0.2	[Cha]VTHRLAGLLSRSGGVVKNNFVPTDVGPFAF-NH2 [SEQ ID NO 704]
0.17	Ac-VTHRLAGLLSRSGGVVRK(20 kDa PEG)NFVPTDVGPFAF-NH2 [SEQ ID NO 230]
0.23	Bn2-VTHRLAGLLSRSGGVVKNNFVPTDVGPFAF-NH2 [SEQ ID NO 702]
0.21	WVTHRLAGLLSRSGGVVKC(MeO‑PEG 5 kDa)NFVPTDVGPFAF-NH2 [SEQ ID NO 696]
